Source: PMC11499148

Molecular target: soluble human FcRn (human) (UniProt P55899)
Assay: SPR; pH 6.0

Row | Kd [nM] | Substance
1 | 334 | hAK23-IgG1-WT
2 | 137 | hAK23-IgG1-DHS
3 | 64 | hAK23-IgG4-DHS
4 | 215 | hAK23-IgG4-WT
